Source: patent US20220333113

Experiments:
[1] = biological target: T1, RIG-I WT full-length (Homo sapiens) (UniProt O95786); assay: filter; details: 37 C
T1 sequence: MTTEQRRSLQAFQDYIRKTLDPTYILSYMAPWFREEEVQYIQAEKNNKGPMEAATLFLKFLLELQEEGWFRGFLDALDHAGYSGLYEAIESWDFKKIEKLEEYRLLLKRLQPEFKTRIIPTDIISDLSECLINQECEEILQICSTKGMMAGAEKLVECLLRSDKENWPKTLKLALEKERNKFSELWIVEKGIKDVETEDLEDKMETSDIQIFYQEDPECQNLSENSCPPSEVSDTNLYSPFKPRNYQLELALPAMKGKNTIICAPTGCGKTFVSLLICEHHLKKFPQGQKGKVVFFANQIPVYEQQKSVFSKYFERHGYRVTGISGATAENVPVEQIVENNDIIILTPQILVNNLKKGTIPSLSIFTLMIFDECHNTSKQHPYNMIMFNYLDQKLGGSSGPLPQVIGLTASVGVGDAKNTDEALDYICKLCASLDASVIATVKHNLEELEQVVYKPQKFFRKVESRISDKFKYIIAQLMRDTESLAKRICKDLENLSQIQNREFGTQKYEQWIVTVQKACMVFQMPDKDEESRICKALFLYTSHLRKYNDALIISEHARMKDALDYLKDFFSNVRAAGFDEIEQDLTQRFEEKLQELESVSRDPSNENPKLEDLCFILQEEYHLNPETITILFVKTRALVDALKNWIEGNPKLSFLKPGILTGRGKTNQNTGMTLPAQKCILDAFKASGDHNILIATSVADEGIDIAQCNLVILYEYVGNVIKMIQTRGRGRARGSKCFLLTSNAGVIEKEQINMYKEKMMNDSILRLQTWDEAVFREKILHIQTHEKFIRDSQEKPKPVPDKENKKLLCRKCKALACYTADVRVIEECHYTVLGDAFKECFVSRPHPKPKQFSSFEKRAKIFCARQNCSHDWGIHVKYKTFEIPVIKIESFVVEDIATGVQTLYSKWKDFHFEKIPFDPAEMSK

[2] = biological target: T2, RIG-I CTD (aa 792-925) (Homo sapiens) (UniProt O95786); assay: EMSA; details: 1 mM DTT, 37 C
T2 sequence: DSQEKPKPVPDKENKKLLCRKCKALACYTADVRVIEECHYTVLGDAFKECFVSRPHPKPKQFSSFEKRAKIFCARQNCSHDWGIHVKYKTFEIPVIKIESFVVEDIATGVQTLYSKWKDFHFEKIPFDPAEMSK

[3] = J = PPdU at every J, SB18T0.01 + 20% glycerol

Sequence | Kd [2, 3] [nM] | further results
ATCTCCGGGAACACTGTCTGATTAATGTCTTGTAAGCGGGTTTTCGGCAG [14833-10_3] |  | Kd ([1]; J = PPdU at every J, SB18T0.01 + 1 mM DTT): 12 nM
ATCTCTGTGTCATGTGTTTTAATGTCAGTTTAATG [14832-55_10] | 1.5 | 
ATCTCTGTGTCATGTGTTTTAATGTCAGTTTAATGATG [14832-55_9] | 0.15 | 
ATCTCTGTGTCATGTGTTTTAATGTCAGTTTAATGATGAGGGAC [14832-55_7] | 0.011 | 
ATCTCTGTGTCATGTGTTTTAATGTCAGTTTAATGATGAGGGACGGG [14832-55_6] | 0.018 | 
ATCTCTGTGTCATGTGTTTTAATGTCAGTTTAATGATGAGGGACGGGCAG [14832-55_3] |  | Kd ([1]; J = 5-(N-3-phenylpropylcarboxyamide)-2'-deoxyuridine (PPdU) at every J (n in listing), SB18T0.01 (5 mM MgCl2) + 1 mM DTT): 0.024 nM; Kd ([2]; J = 5-(N-3-phenylpropylcarboxyamide)-2'-deoxyuridine (PPdU) at every J (n in listing), SB18T0.01 (5 mM MgCl2) + 20% glycerol): 0.0072 nM
CTGTGTCATGTGTTTTAATGTCAGTTTAATGATGAGG [14832-55_12] | 0.34 | 
GTGTCATGTGTTTTAATGTCAGTTTAATGATGAGGGACGGGCAG [14832-55_5] | 36 | 
TCTGTGTCATGTGTTTTAATGTCAGTTTAATGATGA [14832-55_15] | 0.063 | 
TCTGTGTCATGTGTTTTAATGTCAGTTTAATGATGAG [14832-55_14] | 0.066 | 
TCTGTGTCATGTGTTTTAATGTCAGTTTAATGATGAGG [14832-55_11] | 0.068 | 
TCTGTGTCATGTGTTTTAATGTCAGTTTAATGATGAGGGACGGGCAG [14832-55_4] | 0.084 | 
TGTGTCATGTGTTTTAATGTCAGTTTAATGATGAGG [14832-55_13] | 4.3 | 
